Data on 5 molecules can be found in patent publication US20190127480A1 (Regeneron, published 2019).

Assay [1] deals with T1, Soluble heterodimeric CD3 protein (hCD3-epsilon/hCD3-delta) with either a human Fc tag (hFcΔAdp/hFc) or a … (human, UniProt P07766 23-126; P04234 22-105).
T1 construct: also called hCD3ε/δ; not shown: Fc tag: human (hFcΔAdp/hFc)
Put plainly: SPR Biacore 25C antibody-capture. As for the experimental part: Measurements were conducted on a T200 Biacore™ instrument.
Soluble heterodimeric CD3 protein (hCD3-epsilon/hCD3-delta; SEQ ID NOs:1652/1653) with either a human Fc tag (hFcΔAdp/hFc; SEQ ID NOs:1683/1684) or a mouse Fc tag (mFcΔAdp/mFc; SEQ ID NOs:1685/1686) was injected over the antibody captured surface and the binding response was recorded. Heterodimeric CD3 protein was purified using the method described in Davis et al. (US2010/0331527).
Kinetic association (kₐ) and dissociation (kd) rate constants were determined by processing and fitting the data to a 1:1 binding model using Scrubber 2.0 curve fitting software. Binding dissociation equilibrium constants (KD) and dissociative half-lives (t₁₁₂) were calculated from the kinetic rate constants as: KD (M)=kd/kₐ; and t_{1/2} (min)=(ln 2/(60*kd). NT=not tested; NB=no binding observed.
A general note: In SPR one partner is held on a chip, and binding of the other changes the refractive index at the surface.

In assay [2] the target is T1, Soluble heterodimeric CD3 protein …. The experiment in a line: SPR Biacore 25C antigen-capture. In a few lines: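 Rate constants fitted to a 1:1 model, giving KD as kd/ka and dissociative half-life as ln2/(60·kd) minutes. Antibodies flowed over CD3ε/δ heterodimer captured on anti-human or anti-mouse Fc surfaces, run on a Biacore T200 at 25 °C.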

T1 sequence (P07766 23-126 limits assumed, stated change not applied, chain 1 of 2): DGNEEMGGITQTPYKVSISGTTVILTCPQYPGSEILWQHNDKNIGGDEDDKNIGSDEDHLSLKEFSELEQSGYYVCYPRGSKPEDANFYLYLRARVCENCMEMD
T1 sequence (P04234 22-105 limits assumed, stated change not applied, chain 2 of 2): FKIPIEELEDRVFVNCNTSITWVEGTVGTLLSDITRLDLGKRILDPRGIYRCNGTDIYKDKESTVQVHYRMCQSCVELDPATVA

B1: H1H5786B (antibody, human IgG1, V domains shown)
VH: QVQLVESGAEVKKPGASVKVSCKTSGYTFTGYYMHWIRQAPGQGLEWMGWINPKSGGTNYAQKFQGRVTMTRDTSISTAYMELSRLRSDDMAVYYCARMGDGAVFDFWGQGTLVTVSS
VL: AIQMTQSPSSLSASVGDRVTITCRASQRISSFLNWYQQKPGKAPKLLIYTASNLQNGVPSRFSGSGSGTDFTLTISSLQPEDFATYYCQQSYRTPLTFGGGTKVEIKR
notes: H1H: human IgG1 Fc; divalent
B1: in assay [1], the Kd was found to be 85.4 nM, the “T½” value is 11 min, the koff is 0.00108 s⁻¹ and the kon was found to be 12600 M⁻¹ s⁻¹. In addition, in assay [2], the Kd came to 0.141 nM, the “T½” value was 27 min, the koff was found to be 0.000424 s⁻¹ and the kon was 3e+06 M⁻¹ s⁻¹.

B2: H1H5790B (antibody, human IgG1, V domains shown)
VH: EVQLVESGGGVVQPGRSLRLSCAASGFTFSYYGMHWVRQAPGKGLEWVAVISFDGKNKYYADSVMGRFTISRDNSKNTLYLQMNSLRAEDSAVFFCARSYDILTGYGAGYSYHYGMDVWGQGTTVTVSS
VL: AIQMTQSPSSLSASVGDRVTITCRASQRISSFLNWYQQKPGKAPKLLIYTASNLQNGVPSRFSGSGSGTDFTLTISSLQPEDFATYYCQQSYRTPLTFGGGTKVEIKR
notes: H1H: human IgG1 Fc; divalent
On to B2, for which, in assay [1], the Kd amounted to 28.3 nM, the “T½” value turned out to be 22 min, the koff was 0.000517 s⁻¹ and the kon turned out to be 18200 M⁻¹ s⁻¹. In assay [2], the Kd was 0.254 nM, the “T½” value worked out at 49 min, the koff is 0.000236 s⁻¹ and the kon was 925000 M⁻¹ s⁻¹.

B3: H1H5791B (antibody, human IgG1, V domains shown)
VH: QVQLVESGAEVKKPGASVKVSCKTSGYTLSGYYMHWMRQAPGQGLEWMGWINPKSGVTNYAQKFQDRVAMTRDTSISTAYMELSRLRSDDTAVYYCARMGDGAVFDFWAQGTLVTVSS
VL: DIQLTQSPSSLSASVGDRVTITCRASQRISSFLNWYQQKPGKAPKLLIYTASNLQNGVPSRFSGSGSGTDFTLTISSLQPEDFATYYCQQSYRTPLTFGGGTKLEIKR
notes: H1H: human IgG1 Fc; divalent
As to B3, in assay [1], the dissociation constant (Kd) was determined as 72.5 nM, the “T½” value is 15 min, the koff came to 0.00079 s⁻¹ and the kon was 10900 M⁻¹ s⁻¹. Further, in assay [2], the Kd amounted to 0.433 nM, the “T½” value came to 34 min, the koff worked out at 0.00034 s⁻¹ and the kon was 786000 M⁻¹ s⁻¹.

B4: H1H5793B (antibody, human IgG1, V domains shown)
VH: QVQLVQSGTEVKKPGASMKVSCKASGYTFTGYYIHWVRQAPGQGLEWMGWINPNSDVTKYAQKFQGRVTLTRDTSISAAYIDLSRLRSDDTAIYYCARMGDGAVFDYWGQGTLVTVSS
VL: DIQLTQSPSSLSASVGDRVTITCRASQRISSYLNWYQQKPGKAPKVLISVASSLQSGVPSRFSGSGFGTDFTLTISSLQPEDSASYYCQQSYNTPLTFGGGTKLEIKR
notes: H1H: human IgG1 Fc; divalent
As for B4, in assay [1], binding was put at a Kd of 44.7 nM, the “T½” value stood at 30 min, the koff came to 0.000382 s⁻¹ and the kon amounted to 8540 M⁻¹ s⁻¹. For the same molecule, in assay [2], binding was put at a Kd of 0.333 nM, the “T½” value turned out to be 73 min, the koff amounted to 0.000159 s⁻¹ and the kon worked out at 478000 M⁻¹ s⁻¹.

B5: H1H5781P (antibody, human IgG1, V domains shown)
VH: EVQLVESGGGLVQPGRSLRLSCAASGFTFDDFTMHWVRQAPGKGLEWVSDISWNSGSIDYADSVKGRFTISRDNARNSLFLQMSSLRTEDTASYYCIKDKSGYGSYNYGLDVWGQGTTVTVSS
VL: EIVLTQSPGTLSLSPGDRATLSCRASQSVSSIYLAWYQQKPGQAPRLLIHGASTRATGIPDRFSGSGSGTDFTLTISRLEPEDFALYYCHQRVSSPYTFGQGTKLEIK
notes: H1H: human IgG1 Fc; divalent
B5: in assay [1], the Kd stood at 57.7 nM, the “T½” value turned out to be 23 min, the koff came out at 0.000497 s⁻¹ and the on-rate (kon) came to 8610 M⁻¹ s⁻¹. In assay [2], the Kd was 1.92 nM, the “T½” value amounted to 43 min, the koff stood at 0.000268 s⁻¹ and the kon came out at 140000 M⁻¹ s⁻¹.

Broadly, the Kd is the free concentration of one partner at which half of the binding sites on the other are occupied at equilibrium, for simple one-to-one binding. Broadly, the koff is a measure of how fast the partners let go of each other. The term kon denotes the second-order rate constant of association. Low readings indicate slower complex formation, high ones faster complex formation.
